Experimental data as given in PMC6730887, “FKBP51 and FKBP12.6—Novel and tight interactors of Glomulin” (PLoS ONE, 2019).
Where two headings read alike, the source gives them in different places.

Columns and labels:
GST-Glmn (Glomulin) [1] = target: T1, GST-Glmn (Glomulin) (UniProt Q92990 1-594); assay: FRET
T1 chain: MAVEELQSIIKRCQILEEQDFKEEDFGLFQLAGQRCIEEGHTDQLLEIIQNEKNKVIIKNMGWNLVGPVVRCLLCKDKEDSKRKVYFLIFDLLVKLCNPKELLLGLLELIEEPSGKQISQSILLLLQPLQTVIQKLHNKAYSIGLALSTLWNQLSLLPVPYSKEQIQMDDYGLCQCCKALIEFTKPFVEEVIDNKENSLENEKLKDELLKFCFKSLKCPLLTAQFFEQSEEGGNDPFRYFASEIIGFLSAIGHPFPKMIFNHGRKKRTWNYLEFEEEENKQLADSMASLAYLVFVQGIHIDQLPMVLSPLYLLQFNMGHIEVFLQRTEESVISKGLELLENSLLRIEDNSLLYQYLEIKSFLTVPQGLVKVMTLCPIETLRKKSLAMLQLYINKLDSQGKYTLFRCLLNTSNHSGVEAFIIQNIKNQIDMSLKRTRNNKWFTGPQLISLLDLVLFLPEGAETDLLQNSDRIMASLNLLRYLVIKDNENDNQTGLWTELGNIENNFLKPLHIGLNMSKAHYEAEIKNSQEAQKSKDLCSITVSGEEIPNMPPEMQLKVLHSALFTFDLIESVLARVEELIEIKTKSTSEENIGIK

GST-Glmn (Glomulin) [2] = target: T2, GST-Glmn (Glomulin) (UniProt Q92990 1-594); assay: AlphaScreen or HTRF; competitive HTRF: unlabelled FKBP titrated against 30 nM FKBP51FK1-5-MF and 30 nM GST-Glmn with Anti GST-Tb cryptate; 20 mM HEPES, 5% glycerol, 20 mM NaCl, 10 mM DTT, pH 8.0; room temperature, 1 h; conditions: both partners purified
T2 construct: Glomulin (Glmn); GST is detected by the anti-GST-Tb cryptate antibody in the HTRF assays; also called GST-tagged Glmn; FAP48; source: E. coli BL21(DE3), purified (glutathione beads, SEC)
T2 sequence (looked up): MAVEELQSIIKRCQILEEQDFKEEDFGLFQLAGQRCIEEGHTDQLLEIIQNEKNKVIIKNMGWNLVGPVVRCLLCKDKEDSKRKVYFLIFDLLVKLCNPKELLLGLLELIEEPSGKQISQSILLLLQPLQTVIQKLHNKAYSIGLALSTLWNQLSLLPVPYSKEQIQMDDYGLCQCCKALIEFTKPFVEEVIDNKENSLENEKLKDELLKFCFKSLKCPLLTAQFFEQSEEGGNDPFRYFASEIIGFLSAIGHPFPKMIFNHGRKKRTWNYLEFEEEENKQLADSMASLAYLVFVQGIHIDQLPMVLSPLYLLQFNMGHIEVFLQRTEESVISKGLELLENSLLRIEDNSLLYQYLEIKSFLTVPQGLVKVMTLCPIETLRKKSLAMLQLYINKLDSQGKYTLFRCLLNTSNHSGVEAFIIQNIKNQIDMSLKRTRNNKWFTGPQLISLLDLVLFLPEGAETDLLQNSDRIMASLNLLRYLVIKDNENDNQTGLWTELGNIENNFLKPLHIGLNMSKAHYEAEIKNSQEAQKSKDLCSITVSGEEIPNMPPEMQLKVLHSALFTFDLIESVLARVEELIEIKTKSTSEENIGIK

GST-Glmn (Glomulin) [3] = target: T1, GST-Glmn (Glomulin); assay: FRET
GST-Glmn (Glomulin) [4] = target: T1, GST-Glmn (Glomulin); assay: FRET

B1: His-FKBP51-Strep (full length) (natural protein, UniProt Q13451 1-457, looked up)
chain: MTTDEGAKNNEESPTATVAEQGEDITSKKDRGVLKIVKRVGNGEETPMIGDKVYVHYKGKLSNGKKFDSSHDRNEPFVFSLGKGQVIKAWDIGVATMKKGEICHLLCKPEYAYGSAGSLPKIPSNATLFFEIELLDFKGEDLFEDGGIIRRTKRKGEGYSNPNEGATVEIHLEGRCGGRMFDCRDVAFTVGEGEDHDIPIGIDKALEKMQREEQCILYLGPRYGFGEAGKPKFGIEPNAELIYEVTLKSFEKAKESWEMDTKEKLEQAAIVKEKGTVYFKGGKYMQAVIQYGKIVSWLEMEYGLSEKESKASESFLLAAFLNLAMCYLKLREYTKAVECCDKALGLDSANEKGLYRRGEAQLLMNEFESAKGDFEKVLEVNPQNKAARLQISMCQKKAKEHNERDRRIYANMFKKFAEQDAKEEANKAMGKKTSEGVTNEKGTDSQAMEEEKPEGHV
notes: FKBP51, full length; in pProEx-HTA, used as previously described; also called FKBP51FL; full-length FKBP51; source: E. coli BL21(DE3), purified (Ni-NTA, SEC)
B1 was tested, and the IC50 (GST-Glmn (Glomulin) [1]) was 96 nM and the “fold difference in competition between full-length protein and the isolated FK506-binding domain” value (GST-Glmn (Glomulin) [2]) was 4 fold.

B2: His-FKBP51FK1 (FD67/68DV) (domain or fragment)
chain: MTTDEGAKNNEESPTATVAEQGEDITSKKDRGVLKIVKRVGNGEETPMIGDKVYVHYKGKLSNGKKDVSSHDRNEPFVFSLGKGQVIKAWDIGVATMKKGEICHLLCKPEYAYGSAGSLPKIPSNATLFFEIELLDFKGE
For B2, the IC50 (GST-Glmn (Glomulin) [3]) was 15.6 µM.

B3: His-FKBP51FK1 (1-140) (domain or fragment)
chain: MTTDEGAKNNEESPTATVAEQGEDITSKKDRGVLKIVKRVGNGEETPMIGDKVYVHYKGKLSNGKKFDSSHDRNEPFVFSLGKGQVIKAWDIGVATMKKGEICHLLCKPEYAYGSAGSLPKIPSNATLFFEIELLDFKGE
B3 showed an IC50 (GST-Glmn (Glomulin) [4]) of 383 nM.

B4: His-FKBP51FK1 (F67V) (domain or fragment)
chain: MTTDEGAKNNEESPTATVAEQGEDITSKKDRGVLKIVKRVGNGEETPMIGDKVYVHYKGKLSNGKKVDSSHDRNEPFVFSLGKGQVIKAWDIGVATMKKGEICHLLCKPEYAYGSAGSLPKIPSNATLFFEIELLDFKGE
Work on B4 yielded an IC50 (GST-Glmn (Glomulin) [4]) of 880 nM.

B5: His-FKBP52FK1 (domain or fragment)
chain: GDRVFVHYTGWLLDGTKFDSSLDRKDKFSFDLGKGEVIKAWDIAIATMKVGEVCHITCKPEYAYGSAGSPPKIPPNATLVFEVELFEFK
For B5, the IC50 (GST-Glmn (Glomulin) [1]) was 362 nM.

B6: His-FKBP52-Strep (full length) (natural protein, UniProt Q02790 1-459, looked up)
chain: MTAEEMKATESGAQSAPLPMEGVDISPKQDEGVLKVIKREGTGTEMPMIGDRVFVHYTGWLLDGTKFDSSLDRKDKFSFDLGKGEVIKAWDIAIATMKVGEVCHITCKPEYAYGSAGSPPKIPPNATLVFEVELFEFKGEDLTEEEDGGIIRRIQTRGEGYAKPNEGAIVEVALEGYYKDKLFDQRELRFEIGEGENLDLPYGLERAIQRMEKGEHSIVYLKPSYAFGSVGKEKFQIPPNAELKYELHLKSFEKAKESWEMNSEEKLEQSTIVKERGTVYFKEGKYKQALLQYKKIVSWLEYESSFSNEEAQKAQALRLASHLNLAMCHLKLQAFSAAIESCNKALELDSNNEKGLFRRGEAHLAVNDFELARADFQKVLQLYPNNKAAKTQLAVCQQRIRRQLAREKKLYANMFERLAEEENKAKAEASSGDHPTDTEMKEEQKSNTAGSQSQVETEA
notes: FKBP52, full length; in pProEx-HTA, used as previously described; also called FKBP52FL; full-length FKBP52; source: E. coli BL21(DE3), purified (Ni-NTA, SEC)
In the case of B6, the “fold better competition than its FK1 domain” value (GST-Glmn (Glomulin) [2]) is reported as roughly 19 fold.

B7: His-FKBP51FK1 (aa16-140) (domain or fragment)
chain: ATVAEQGEDITSKKDRGVLKIVKRVGNGEETPMIGDKVYVHYKGKLSNGKKFDSSHDRNEPFVFSLGKGQVIKAWDIGVATMKKGEICHLLCKPEYAYGSAGSLPKIPSNATLFFEIELLDFKGE
For B7, the IC50 (GST-Glmn (Glomulin) [4]) was 380 nM and the IC50 (GST-Glmn (Glomulin) [1]) was 372 nM.
